From patent US20070015194A1 (RAMOT AT TEL AVIV UNIVERSITY, published 2007)

Molecular target: T1, CC2D1A protein (coiled-coil and C2 domain containing 1A), wild type, human, GenBank Accession No. NP-060191 (human, UniProt Q6P1N0 1-951)
T1 construct: Endogenous protein in lysates of lymphoblast or lymphoblastoid cells from unaffected individuals; It is the long isoform of 951 amino acids, seen as a band of about 104 kDa; also called FLJ20241; wild type protein
T1 sequence: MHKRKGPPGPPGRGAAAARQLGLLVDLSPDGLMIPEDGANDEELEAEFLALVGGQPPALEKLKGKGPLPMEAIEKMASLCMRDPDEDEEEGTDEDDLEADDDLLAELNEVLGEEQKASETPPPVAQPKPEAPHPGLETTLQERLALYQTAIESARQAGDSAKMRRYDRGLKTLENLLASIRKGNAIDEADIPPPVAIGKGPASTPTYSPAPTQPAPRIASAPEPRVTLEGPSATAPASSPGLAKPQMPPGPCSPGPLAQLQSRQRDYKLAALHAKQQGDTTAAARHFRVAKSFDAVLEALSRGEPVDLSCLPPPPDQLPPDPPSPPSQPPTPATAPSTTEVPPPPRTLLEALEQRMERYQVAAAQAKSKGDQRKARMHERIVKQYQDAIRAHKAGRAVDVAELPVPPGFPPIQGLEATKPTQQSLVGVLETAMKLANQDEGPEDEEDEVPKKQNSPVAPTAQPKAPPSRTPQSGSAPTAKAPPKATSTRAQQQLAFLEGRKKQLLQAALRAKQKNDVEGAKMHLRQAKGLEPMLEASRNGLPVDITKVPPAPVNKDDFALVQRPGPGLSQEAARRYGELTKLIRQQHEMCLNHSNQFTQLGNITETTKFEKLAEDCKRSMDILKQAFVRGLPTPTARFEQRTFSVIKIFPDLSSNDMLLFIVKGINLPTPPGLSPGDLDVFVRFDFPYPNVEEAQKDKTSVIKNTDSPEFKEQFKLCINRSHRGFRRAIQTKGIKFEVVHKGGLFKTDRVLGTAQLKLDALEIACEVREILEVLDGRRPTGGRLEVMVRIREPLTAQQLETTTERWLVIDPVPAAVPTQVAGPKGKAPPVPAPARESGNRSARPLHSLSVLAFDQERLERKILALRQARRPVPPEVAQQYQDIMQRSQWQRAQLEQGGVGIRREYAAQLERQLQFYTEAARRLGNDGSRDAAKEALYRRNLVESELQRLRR
Assay: co-immunoprecipitation of endogenous proteins from control lymphoblastoid cell extracts with anti-CC2D1A antibody, Western blot with anti-p50 (data not shown)
Method: Western blot—Lymphoblast cell proteins were subjected to Western blot analysis using the CC2D1A antibody. Briefly, cells were washed twice with PBS and lysed at 4° C. with lysis buffer (0.6% NP40 and protease inhibitors). After 15 minutes of incubation, cell lysates were centrifuged for 5 minutes at 14,000 rpm and supernatants were collected. Protein concentrations were determined using the BCA Protein Assay Reagent Kit (PIERCE). Whole-cell proteins (approximately 20 μg) were subjected to 7.5% SDS-PAGE and transferred to nitrocellulose membranes. The membranes were blocked for 30 minutes at room temperature with 5% skim milk in Tris-buffer (10 mM Tris, 150 mM NaCl, and 0.1% Tween-20) and subsequently incubated with anti-CC2D1A rabbit polyclonal antibody (BL695, Bethyl laboratories) diluted 1:20000, rabbit polyclonal anti-emerin (sc-15378, Santa Cruz Biotechnology) diluted 1:5000, mouse monoclonal antibody anti-NF-κB p50 (sc-8414, Santa Cruz Biotechnology) diluted 1:1000 or mouse monoclonal antibody p65 (sc-8008, Santa Cruz Biotechnology) diluted 1:5000. After washing and subsequent incubation for 1 hour with horseradish peroxidase coupled to anti-rabbit IgG or mouse IgG respectively (Jackson ImmunoResearch Laboratories, West Grove, Pa.), immunoreactive proteins were visualized by an ECL (enhanced chemiluminescence super signal) Detection Kit (PIERCE). […]

B1: p50 subunit of NF-κB (other, human, UniProt P19838 1-433, looked up)
chain: MAEDDPYLGRPEQMFHLDPSLTHTIFNPEVFQPQMALPTDGPYLQILEQPKQRGFRFRYVCEGPSHGGLPGASSEKNKKSYPQVKICNYVGPAKVIVQLVTNGKNIHLHAHSLVGKHCEDGICTVTAGPKDMVVGFANLGILHVTKKKVFETLEARMTEACIRGYNPGLLVHPDLAYLQAEGGGDRQLGDREKELIRQAALQQTKEMDLSVVRLMFTAFLPDSTGSFTRRLEPVVSDAIYDSKAPNASNLKIVRMDRTAGCVTGGEEIYLLCDKVQKDDIQIRFYEEEENGGVWEGFGDFSPTDVHRQFAIVFKTPKYKDINITKPASVFVQLRRKSDLETSEPKPFLYYPEIKDKEEVQRKRQKLMPNFSDSFGGGSGAGAGGGGMFGSGGGGGGTGSTGPGYSFPHYGFPTYGGITFHPGTTKSNAGMKHG
notes: Endogenous protein; also called NF-κB p50
binding result: no binding
